# Assay results as given in doi:10.1101/2020.01.07.896506 (bioRxiv, 2020).
# Changes are numbered by the printed parent chain. Numbers in names are those of the source.
# B1: recombinant GRXS17 (glutaredoxin GRXS17, Arabidopsis thaliana) (natural protein, UniProt Q9ZPH2 1-488, looked up)
# chain: MSGTVKDIVSKAELDNLRQSGAPVVLHFWASWCDASKQMDQVFSHLATDFPRAHFFRVEAEEHPEISEAYSVAAVPYFVFFKDGKTVDTLEGADPSSLANKVGKVAGSSTSAEPAAPASLGLAAGPTILETVKENAKASLQDRAQPVSTADALKSRLEKLTNSHPVMLFMKGIPEEPRCGFSRKVVDILKEVNVDFGSFDILSDNEVREGLKKFSNWPTFPQLYCNGELLGGADIAIAMHESGELKDAFKDLGITTVGSKESQDEAGKGGGVSSGNTGLSETLRARLEGLVNSKPVMLFMKGRPEEPKCGFSGKVVEILNQEKIEFGSFDILLDDEVRQGLKVYSNWSSYPQLYVKGELMGGSDIVLEMQKSGELKKVLTEKGITGEQSLEDRLKALINSSEVMLFMKGSPDEPKCGFSSKVVKALRGENVSFGSFDILTDEEVRQGIKNFSNWPTFPQLYYKGELIGGCDIIMELSESGDLKATLSE
# B2: recombinant GRXS17-C33S/C179S/C309S/C416S (natural protein, Arabidopsis thaliana, UniProt Q9ZPH2 1-488, looked up)
# chain: B1 chain with C33S, C179S, C309S, C416S
# B3: recombinant GRXS17-C33S (natural protein, Arabidopsis thaliana, UniProt Q9ZPH2 1-488, looked up)
# chain: B1 chain with C33S
# Assays:
# native gel or EMSA = target: the molecule itself; assay: native gel or EMSA
# SEC = target: the molecule itself; assay: SEC
protein,measurement,setting,value
B1,stoichiometry N,native gel or EMSA,2
B2,stoichiometry N,SEC,2
B3,binding result,SEC,binds
